Values of other authors in article PMC4192513, “A Novel Protein-Protein Interaction in the RES (REtention and Splicing) Complex” (The Journal of Biological Chemistry, 2014).
“Also recorded” adds a separate entry of the source.

System: RES complex (Snu17p, Bud13p, Pml1p)
Settings: ref [4]
Description: Previous biochemical analyses have shown that Snu17p binds Bud13p directly ([4], [6]). Based on a mutational analysis of the invariant Bud13p Trp^232 residue ([6]), the interaction of Bud13p with the Snu17p RRM has been proposed to resemble a typical UHM-ULM interaction. […] The structural findings are consistent with our initial mutagenesis analysis, which was guided by the recognition features described for the UHM family.

B1: W232A: single W232A mutant of Bud13p, from ref [4] (protein, UniProt P46947 1-266, looked up, variant W232A)
Pre-mRNA-splicing factor CWC26: MALHQYLSETYGPTKPKNKTKKKKKESKSDANSDKTSLIVKERLSTLQQEQEKSGVASFSKFDKQKSKNIWKNLETNELSHAITHPSASSITGNESKNDLKEIRAQEPLVTVADKSKTRKTIYRDAQGHKIQEDSKIDDSSFSRSKYEDEKAAEREQYLKNLNMGDVQKLGINVDAHDKKKNQTASSLTIEDPAITFTHDKERTVKTSLLGRKLYDKPAPENRFAIMPGSRADGVHRSNGFEEKWFAKQNEINEKKVQSYTLQEDY
interaction with Snu17p / complex formation of W232A mutant: did not abolish its interaction with Snu17p; also recorded: did not prevent complex formation
